± gives the standard deviation of the averaged measurements.
Each sequence was assayed on ATP (assay: switch fluorescence ratio, 500 uM ATP over buffer (Cy3 cluster intensity, sum of 5 cycles each) (fold (ratio)); higher = stronger signal-on switching upon ATP binding; sequences stand for … in TCGTCGGCAGCGTCAGATGTGTATAAGAGACAGTTTTTTTTTTTTTTTTTTTTTTTTT…TC). Conditions: aptamer strand: ATP DNA aptamer (quencher-CACCTGGGGGAGTATTGCGGAGGAAGG + anchor), 100 nM annealed; ATP concentration: 500 uM.
In short: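 Cy3-labelled switching-strand clusters on a modified Illumina MiSeq flow-cell were annealed to 100 nM quencher-labelled ATP aptamer, imaged in selection buffer, then imaged after 15 min with 500 uM ATP at 22 °C. Five buffer/ATP cycles ran, with NaOH stripping and re-annealing between them. The fluorescence ratio is summed target-cycle over summed buffer-cycle Cy3 intensity per cluster, averaged per switch-domain sequence. Clusters outside 100-1000 RFU were excluded.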
CGCTTACTTT was tested, and the switch fluorescence ratio was 1.24 ± 0.021. For CGCTTAGGGT, the switch fluorescence ratio was 1.05 ± 0.07. CGCTTAGTGG gave a switch fluorescence ratio of 1.03 ± 0.0027. CGCTTTAGGT was tested, and the switch fluorescence ratio was 1.02 ± 0.012. For CGCTTTGTGT, the switch fluorescence ratio was 0.973 ± 0.032. With CGCTTTTCGT the switch fluorescence ratio was 1.0023 ± 8e-05. CGCTTTTGGA gave a switch fluorescence ratio of 1 ± 0.036. CGGAAAAAGG gave a switch fluorescence ratio of 0.992 ± 0.034. CGGAAAGACG gave a switch fluorescence ratio of 1.05 ± 0.014. CGGAACTGAA was tested, and the switch fluorescence ratio was 1.02 ± 0.072. Sequence CGGAACTGGT has a switch fluorescence ratio of 1.04 ± 0.058. CGGAAGGGGG showed a switch fluorescence ratio of 1 ± 0.048. With CGGAAGGTAG the switch fluorescence ratio was 0.962 ± 0.015. CGGAATAGGG gave a switch fluorescence ratio of 1.07 ± 0.052. Work on CGGAATGGGG yielded a switch fluorescence ratio of 1.02 ± 0.015. Work on CGGAATGTAT yielded a switch fluorescence ratio of 0.992 ± 0.04. CGGAATTGGG showed a switch fluorescence ratio of 0.9735 ± 0.0085. For CGGACGAAAG, the switch fluorescence ratio was 1.02 ± 0.048. In the case of CGGACGGGTT, the switch fluorescence ratio is reported as 0.985 ± 0.019. Work on CGGACTAGGG yielded a switch fluorescence ratio of 1.04 ± 0.022. CGGACTATAT was tested, and the switch fluorescence ratio was 1.07 ± 0.032. CGGACTCGTG was tested, and the switch fluorescence ratio was 0.954 ± 0.021. CGGACTGTCA gave a switch fluorescence ratio of 1.02 ± 0.016. CGGAGAATGG showed a switch fluorescence ratio of 1.11 ± 0.13. For CGGAGACGGT, the switch fluorescence ratio was 0.9958 ± 0.0078. CGGAGCAGTG gave a switch fluorescence ratio of 1.75 ± 0.055. Sequence CGGAGCGACG has a switch fluorescence ratio of 1.03 ± 0.015. With CGGAGGACAC the switch fluorescence ratio was 1.09 ± 0.059. In the case of CGGAGGAGGA, the switch fluorescence ratio is reported as 0.993 ± 0.038. For CGGAGGGATG, the switch fluorescence ratio was 1.71 ± 0.66. Sequence CGGAGGGGCG has a switch fluorescence ratio of 0.963 ± 0.06. For CGGAGGGGCT, the switch fluorescence ratio was 1.03 ± 0.015. For CGGAGGGGGG, the switch fluorescence ratio was 1.03 ± 0.062. CGGAGGGTGG was tested, and the switch fluorescence ratio was 0.961 ± 0.041. With CGGAGTATAT the switch fluorescence ratio was 1.87 ± 0.11. For CGGAGTTATC, the switch fluorescence ratio was 1.35 ± 0.2. Sequence CGGAGTTGAA has a switch fluorescence ratio of 1.07 ± 0.027. Sequence CGGATAGTCA has a switch fluorescence ratio of 1.042 ± 0.0078. With CGGATCGACT the switch fluorescence ratio was 0.977 ± 0.02. CGGATGAGGA was tested, and the switch fluorescence ratio was 0.984 ± 0.01. For CGGATGATGA, the switch fluorescence ratio was 1.02 ± 0.089. Work on CGGATGGAAA yielded a switch fluorescence ratio of 0.964 ± 0.02. Sequence CGGATGGCC has a switch fluorescence ratio of 0.965 ± 0.036. CGGATTTATC showed a switch fluorescence ratio of 1.01 ± 0.033. In the case of CGGATTTCAG, the switch fluorescence ratio is reported as 0.951 ± 0.03. With CGGCAAAGTA the switch fluorescence ratio was 0.972 ± 0.065. With CGGCAGGCTC the switch fluorescence ratio was 1.19 ± 0.053. CGGCAGGTTT gave a switch fluorescence ratio of 0.992 ± 0.016. CGGCATGGTG showed a switch fluorescence ratio of 0.98 ± 0.02. CGGCCAGGAA showed a switch fluorescence ratio of 1.05 ± 0.024. Sequence CGGCCGGAGT has a switch fluorescence ratio of 0.983 ± 0.0086. CGGCGATCGG gave a switch fluorescence ratio of 0.99 ± 0.013. CGGCGCACAG showed a switch fluorescence ratio of 1.31 ± 0.051. In the case of CGGCGCTGGA, the switch fluorescence ratio is reported as 1.01 ± 0.055. CGGCGGCCCT was tested, and the switch fluorescence ratio was 1.005 ± 0.0092. CGGCGGGAGT gave a switch fluorescence ratio of 1.019 ± 0.0073. In the case of CGGCGGGGAG, the switch fluorescence ratio is reported as 1 ± 0.044. Sequence CGGCTAGAAG has a switch fluorescence ratio of 0.994 ± 0.038. For CGGCTAGGGG, the switch fluorescence ratio was 1.02 ± 0.037. In the case of CGGCTAGTGC, the switch fluorescence ratio is reported as 1.05 ± 0.042. With CGGCTCGTTT the switch fluorescence ratio was 1.049 ± 0.0079. Sequence CGGCTCTCTT has a switch fluorescence ratio of 1.009 ± 0.0017. Sequence CGGCTGCGGG has a switch fluorescence ratio of 0.978 ± 0.022. CGGCTGGACG was tested, and the switch fluorescence ratio was 0.958 ± 0.047. CGGCTGGCGG was tested, and the switch fluorescence ratio was 0.997 ± 0.026. For CGGCTGGGGA, the switch fluorescence ratio was 1.03 ± 0.017. Work on CGGCTGTTTT yielded a switch fluorescence ratio of 1.037 ± 0.0082. For CGGCTTTGCC, the switch fluorescence ratio was 0.999 ± 0.016. In the case of CGGCTTTTTA, the switch fluorescence ratio is reported as 0.9588 ± 0.0056. Work on CGGCTTTTTG yielded a switch fluorescence ratio of 0.991 ± 0.034. Work on CGGGAAAAAG yielded a switch fluorescence ratio of 1.08 ± 0.11. For CGGGAAAAGA, the switch fluorescence ratio was 1.58 ± 0.99. In the case of CGGGAAAATA, the switch fluorescence ratio is reported as 1.03 ± 0.014. Sequence CGGGAAGGCT has a switch fluorescence ratio of 1.06 ± 0.13. Sequence CGGGAAGGTA has a switch fluorescence ratio of 0.981 ± 0.016. CGGGACAGCG showed a switch fluorescence ratio of 1.01 ± 0.0058. For CGGGACAGTT, the switch fluorescence ratio was 1 ± 0.061. With CGGGACTCCG the switch fluorescence ratio was 1.02 ± 0.0032. In the case of CGGGACTTTT, the switch fluorescence ratio is reported as 0.982 ± 0.044. Work on CGGGAGCCCA yielded a switch fluorescence ratio of 1.02 ± 0.044. For CGGGAGCGTT, the switch fluorescence ratio was 1.12 ± 0.18. With CGGGAGCTGG the switch fluorescence ratio was 1.02 ± 0.023. Work on CGGGAGGAGG yielded a switch fluorescence ratio of 1 ± 0.028. CGGGAGGCCT showed a switch fluorescence ratio of 1.01 ± 0.062. CGGGAGGGGT gave a switch fluorescence ratio of 1.06 ± 0.14. For CGGGAGGGTG, the switch fluorescence ratio was 1.04 ± 0.038. CGGGAGGGTT gave a switch fluorescence ratio of 1 ± 0.02. In the case of CGGGAGTGCT, the switch fluorescence ratio is reported as 0.994 ± 0.019. In the case of CGGGATATGA, the switch fluorescence ratio is reported as 1.03 ± 0.028. Work on CGGGATCGTC yielded a switch fluorescence ratio of 0.977 ± 0.024. With CGGGATGATC the switch fluorescence ratio was 0.9966 ± 0.0069. In the case of CGGGATGGTT, the switch fluorescence ratio is reported as 0.97 ± 0.11. Work on CGGGATGTTA yielded a switch fluorescence ratio of 0.996 ± 0.016. With CGGGATTCGT the switch fluorescence ratio was 1 ± 0.057. Work on CGGGATTTTT yielded a switch fluorescence ratio of 0.973 ± 0.054. CGGGCATTAG showed a switch fluorescence ratio of 1.209 ± 0.0071. With CGGGCCATAG the switch fluorescence ratio was 1.03 ± 0.044. Work on CGGGCCGCGG yielded a switch fluorescence ratio of 1.06 ± 0.083. Work on CGGGCGCTGT yielded a switch fluorescence ratio of 1.06 ± 0.061. For CGGGCGGTGG, the switch fluorescence ratio was 0.9829 ± 0.0069. With CGGGCGTTGT the switch fluorescence ratio was 1 ± 0.04. In the case of CGGGCTGAGA, the switch fluorescence ratio is reported as 1.045 ± 0.0048. In the case of CGGGCTGCGT, the switch fluorescence ratio is reported as 0.962 ± 0.028. With CGGGCTGGAG the switch fluorescence ratio was 1.09 ± 0.079. CGGGCTTGGC showed a switch fluorescence ratio of 1.01 ± 0.0022. CGGGCTTGGG was tested, and the switch fluorescence ratio was 0.968 ± 0.0031. In the case of CGGGGAACTC, the switch fluorescence ratio is reported as 1.06 ± 0.056. CGGGGAAGAT gave a switch fluorescence ratio of 0.981 ± 0.016. CGGGGAAGGT showed a switch fluorescence ratio of 1 ± 0.031. In the case of CGGGGAATTG, the switch fluorescence ratio is reported as 1 ± 0.014. Work on CGGGGAGATC yielded a switch fluorescence ratio of 1.03 ± 0.062. In the case of CGGGGAGGCT, the switch fluorescence ratio is reported as 0.988 ± 0.047. CGGGGAGGGT was tested, and the switch fluorescence ratio was 0.967 ± 0.015. For CGGGGAGGTA, the switch fluorescence ratio was 0.9803 ± 0.0049. CGGGGAGTGG gave a switch fluorescence ratio of 0.973 ± 0.032. For CGGGGATCCT, the switch fluorescence ratio was 1.05 ± 0.032. Work on CGGGGATCTA yielded a switch fluorescence ratio of 1 ± 0.018. Work on CGGGGATGTA yielded a switch fluorescence ratio of 0.972 ± 0.031. In the case of CGGGGATTGG, the switch fluorescence ratio is reported as 1 ± 0.042. For CGGGGCACCG, the switch fluorescence ratio was 0.9868 ± 0.0032. Work on CGGGGCACGC yielded a switch fluorescence ratio of 0.896 ± 0.05. In the case of CGGGGCACTG, the switch fluorescence ratio is reported as 0.997 ± 0.018. For CGGGGCAGCG, the switch fluorescence ratio was 1.02 ± 0.042. Sequence CGGGGCCGTT has a switch fluorescence ratio of 1 ± 0.019. CGGGGCGCGG was tested, and the switch fluorescence ratio was 0.977 ± 0.024. CGGGGCGG showed a switch fluorescence ratio of 0.952 ± 0.057. Work on CGGGGCGGGG yielded a switch fluorescence ratio of 0.985 ± 0.012. In the case of CGGGGCTCCG, the switch fluorescence ratio is reported as 0.967 ± 0.023. Sequence CGGGGCTTAG has a switch fluorescence ratio of 1.0342 ± 0.00025. CGGGGCTTGT showed a switch fluorescence ratio of 0.985 ± 0.013. CGGGGGACGT was tested, and the switch fluorescence ratio was 0.9794 ± 0.0085. In the case of CGGGGGAGCC, the switch fluorescence ratio is reported as 1.02 ± 0.025. CGGGGGAGGT gave a switch fluorescence ratio of 0.989 ± 0.017. CGGGGGCAGG gave a switch fluorescence ratio of 1.03 ± 0.07. CGGGGGCATA showed a switch fluorescence ratio of 1 ± 0.029. With CGGGGGCGCG the switch fluorescence ratio was 1.02 ± 0.021. In the case of CGGGGGGAAG, the switch fluorescence ratio is reported as 1.01 ± 0.029. CGGGGGGCAG gave a switch fluorescence ratio of 1.01 ± 0.024. Sequence CGGGGGGCGC has a switch fluorescence ratio of 0.969 ± 0.014. Work on CGGGGGGGTC yielded a switch fluorescence ratio of 1 ± 0.036. In the case of CGGGGGGGTT, the switch fluorescence ratio is reported as 1.02 ± 0.034. With CGGGGGGTTA the switch fluorescence ratio was 1.01 ± 0.033. CGGGGGTCAA showed a switch fluorescence ratio of 0.99 ± 0.011. Sequence CGGGGGTCCA has a switch fluorescence ratio of 1.01 ± 0.055. Sequence CGGGGGTCTA has a switch fluorescence ratio of 1.01 ± 0.045. CGGGGGTGA showed a switch fluorescence ratio of 1.014 ± 0.0059. With CGGGGGTGAG the switch fluorescence ratio was 1.04 ± 0.13. CGGGGGTGCT gave a switch fluorescence ratio of 0.966 ± 0.044. For CGGGGGTTGC, the switch fluorescence ratio was 0.977 ± 0.042. Sequence CGGGGTACCT has a switch fluorescence ratio of 1.01 ± 0.054. CGGGGTACGC showed a switch fluorescence ratio of 1 ± 0.076. In the case of CGGGGTAGTT, the switch fluorescence ratio is reported as 1.01 ± 0.004. Work on CGGGGTATCT yielded a switch fluorescence ratio of 0.979 ± 0.018.

— the supplement of paper PMC10126150
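Further: ATP exposure 15 min at 22 °C before imaging.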
